The source of these data is PMC11275766 (bioRxiv, 2024).

The target in this assay is ancestral SARS-CoV-2 RBD (recombinant, ELISA antigen) (SARS-CoV-2 ancestral (Wuhan-Hu-1/WA.1), UniProt P0DTC2). Kind of assay: ELISA. A general note: In an ELISA, binding on a coated surface is turned into a signal by an enzyme label.

B1: M2 mAb (human IgG1) (antibody, V domains shown)
VH: QLQESGPGLVKPSEILSLTCSVSGGSINTNMYYWGWIRQPPGKGLEWIGSIYYSGTTYYNPSLKSRVTMSVDTSENQFSLKLTSVTAADTSVYFCARLPLGERIDYWGRGTLVTVSS
VL: SSDLTQPPSVSVSPGQTASITCSGNKLGDTYVFWYQQKPGQSPVAVINEDNKRPSGIPERFSGSNSGNTATLTISGTQTMDEADYYCQVWDSSQMVFGGGTKLTVL
Turning to B1, the binding result is recorded as “no binding (tested: 30 μg/mL)”.
